Data taken from US20090004183A1 (published 2009).

B1: mAb 3E7 (antibody, mouse IgG1, V domains shown)
VH: EVQLQESGPSLVKPSQTLSLTCSVTGDSITSDYWNWIRKFPGNKLESMGYITYSGTTYYNPSLKSRISITRDTSKNQYYLQLNSVTSEDTATYYCARGVDYEPSYYFDYWGQGTTLTVSS
VL: DIQMTQTTSSLSASLGDRVTISCSASQGISNYLNWYQQKPDGTVKLLIYYTSSLHSGVPSRFSGSGSGTDYSLTISNLEPEDIATYYCQQYSNLPWTFGGGTKLEIK
notes: also called mouse IgG1 mAb 3E7; A1488 mAb 3E7
B2: mAb H17 (antibody, V domains shown)
VH: EVQLQESGPSLVKPSQTLSLTCTVSGDSITSDYWNWIRQAPGKGLESMGYITYSGTTYYNPSLKSRVTISRDTSKNQYYMELSSLRSEDTATYYCARGVDYEPSYYFDYWGQGTLVTVSS
VL: DIQMTQSPSSLSASVGDRVTITCSASQGISNYLNWYQQKPGKAPKLLIYYTSSLHSGVPSRFSGSGSGTDYSLTISSLQPEDIATYYCQQYSNLPWTFGQGTKVEIK
notes: It is a chimeric, de-immunized form of 3E7 with human gamma1 and kappa constant regions, expressed in NS0 cells; also called H117; deimmunized chimeric 3E7

Molecular target: T1, C3b deposited on zymosan or Sepharose 4B (human, UniProt P01024 23-667; P01024 749-1663, limits assumed, covalently deposited on zymosan A or Sepharose 4B by opsonization in normal human serum)
T1 construct: The whole C3 entry is named; The deposit may include iC3b; also called C3b-opsonized zymosan; C3b-zymosan
Test: flow cytometry on zymosan opsonized in 50% NHS
Experimental: After 30 minutes, the reactions were quenched with EDTA, washed and samples without the mAbs were probed with the respective A1488 mAbs.

T1 sequence (P01024 23-667 limits assumed, chain 1 of 2): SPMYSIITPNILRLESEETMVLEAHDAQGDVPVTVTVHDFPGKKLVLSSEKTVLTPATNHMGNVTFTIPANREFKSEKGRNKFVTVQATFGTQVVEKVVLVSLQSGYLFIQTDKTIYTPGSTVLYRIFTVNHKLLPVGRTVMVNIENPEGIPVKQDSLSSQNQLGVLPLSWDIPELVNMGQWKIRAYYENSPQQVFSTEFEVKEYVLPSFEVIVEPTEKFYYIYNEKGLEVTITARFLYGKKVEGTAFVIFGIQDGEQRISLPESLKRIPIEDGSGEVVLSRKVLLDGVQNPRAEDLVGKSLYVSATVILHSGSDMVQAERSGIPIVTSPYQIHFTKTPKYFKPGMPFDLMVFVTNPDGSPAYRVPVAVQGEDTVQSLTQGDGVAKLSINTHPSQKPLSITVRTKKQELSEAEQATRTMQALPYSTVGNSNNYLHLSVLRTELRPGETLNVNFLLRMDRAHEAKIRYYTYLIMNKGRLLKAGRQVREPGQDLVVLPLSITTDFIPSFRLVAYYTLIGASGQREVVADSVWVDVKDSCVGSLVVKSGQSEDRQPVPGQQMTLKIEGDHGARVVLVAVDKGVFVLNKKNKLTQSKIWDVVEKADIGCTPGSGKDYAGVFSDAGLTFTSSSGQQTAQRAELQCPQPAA
T1 sequence (P01024 749-1663 limits assumed, chain 2 of 2): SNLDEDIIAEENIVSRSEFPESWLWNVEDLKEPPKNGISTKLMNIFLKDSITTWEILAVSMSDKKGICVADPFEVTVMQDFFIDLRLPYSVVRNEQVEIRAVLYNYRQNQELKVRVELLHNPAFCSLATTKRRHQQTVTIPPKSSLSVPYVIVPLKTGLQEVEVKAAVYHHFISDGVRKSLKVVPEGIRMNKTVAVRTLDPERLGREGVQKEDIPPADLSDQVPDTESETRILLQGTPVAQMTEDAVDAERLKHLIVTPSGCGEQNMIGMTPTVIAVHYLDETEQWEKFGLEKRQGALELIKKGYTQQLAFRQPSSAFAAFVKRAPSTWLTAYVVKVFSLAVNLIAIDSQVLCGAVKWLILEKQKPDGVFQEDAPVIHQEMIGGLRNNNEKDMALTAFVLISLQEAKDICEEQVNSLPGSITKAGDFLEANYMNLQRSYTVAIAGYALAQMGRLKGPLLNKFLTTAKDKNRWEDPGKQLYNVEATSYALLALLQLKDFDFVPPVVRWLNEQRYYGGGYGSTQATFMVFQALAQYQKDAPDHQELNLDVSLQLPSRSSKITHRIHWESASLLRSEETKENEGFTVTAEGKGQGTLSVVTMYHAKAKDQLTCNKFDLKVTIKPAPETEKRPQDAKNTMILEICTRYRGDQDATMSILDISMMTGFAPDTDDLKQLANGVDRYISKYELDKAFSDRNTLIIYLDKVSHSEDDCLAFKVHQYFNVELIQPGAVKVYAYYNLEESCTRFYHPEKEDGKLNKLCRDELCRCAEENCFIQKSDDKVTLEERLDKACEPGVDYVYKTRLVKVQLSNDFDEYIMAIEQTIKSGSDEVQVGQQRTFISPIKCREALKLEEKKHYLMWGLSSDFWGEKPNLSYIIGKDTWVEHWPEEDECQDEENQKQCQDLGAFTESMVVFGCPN

fold increase in binding (probe added after opsonization versus present from the start)	Binder
200 fold	B1
200 fold	B2
